Experimental data from patent publication US12534531 (MacroGenics, dated 2026).

Experiments:
[1] = molecular target: T1, human PD-1 expressed on the surface of cells (NSO cells expressing human PD-1; MNFAT-luc2/PD-1 Jurkat cells) (human, UniProt Q15116 21-288); experiment: FACS saturation binding to NSO cells expressing PD-1; SM; SD 0.3958
T1 construct: also called cell surface PD-1; PDCD1 transfected NSO cells expressing PD-1

[2] = molecular target: T2, soluble human PD-1 (the extracellular domain of human PD-1 fused to a His tag) (human, UniProt Q15116 25-170); experiment: Biacore, mAb captured on F(ab)2 goat anti-human Fc, analyte shPD-1 His
T2 construct: also called shPD-1 His; shPD-1-His; not shown: His tag

[3] = molecular target: T1, human PD-1 expressed on the surface of …; experiment: FACS: inhibition of sPD-L1 binding to PD-1 on NSO cells; SM; SD 0.2337
[4] = molecular target: T1, human PD-1 expressed on the surface of …; experiment: FACS: inhibition of sPD-L2 binding to PD-1 on NSO cells; SM; SD 0.2893
[5] = molecular target: soluble cynomolgus monkey PD-1 (scyno PD-1 hFc) cleaved to remove Fc portion (cynomolgus monkey, UniProt B0LAJ3 25-170); experiment: Biacore, mAb captured on F(ab)2 goat anti-human Fc, analyte scyno PD-1 hFc cleaved of Fc
[6] = molecular target: T1, human PD-1 expressed on the surface of …; experiment: FACS saturation binding on NSO cells expressing human PD-1, goat anti-human-APC, MFI, 1:4 dilutions
[7] = molecular target: T1, human PD-1 expressed on the surface of …; experiment: FACS blocking on NSO cells expressing human PD-1, 1:4 dilutions, MFI; blocked ligand: biotinylated sPD-L1, streptavidin-PE
[8] = molecular target: T1, human PD-1 expressed on the surface of …; experiment: FACS blocking on NSO cells expressing human PD-1, 1:4 dilutions, MFI; blocked ligand: biotinylated sPD-L2, streptavidin-PE

T1 sequence (Q15116 21-288): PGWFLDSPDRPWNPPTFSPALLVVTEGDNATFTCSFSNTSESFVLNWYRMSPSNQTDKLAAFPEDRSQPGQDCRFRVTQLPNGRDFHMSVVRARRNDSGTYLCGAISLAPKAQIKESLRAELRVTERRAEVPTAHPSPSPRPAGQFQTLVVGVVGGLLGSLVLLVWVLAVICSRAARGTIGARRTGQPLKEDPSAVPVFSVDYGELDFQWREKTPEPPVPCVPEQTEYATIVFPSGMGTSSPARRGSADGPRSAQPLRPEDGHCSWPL
soluble cynomolgus monkey PD-1 (scyno PD-1 hFc) cleaved to remove Fc portion, sequence (B0LAJ3 entry or part of it limits assumed): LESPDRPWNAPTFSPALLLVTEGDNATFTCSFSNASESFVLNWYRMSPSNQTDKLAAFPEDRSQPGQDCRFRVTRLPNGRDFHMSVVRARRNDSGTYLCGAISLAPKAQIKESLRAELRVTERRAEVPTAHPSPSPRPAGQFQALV
T2 sequence (Q15116 25-170): as the sequence (B0LAJ3 entry or part of it limits assumed) above, with E2D, A10P, L19V, A35T, R75Q, A144T counted along it

EC50 [1]: 1090 nM
Kd [2]: 1.5 nM
IC50 [3]: 732 nM
IC50 [4]: 977 nM
Kd [5]: 4.9 nM
EC50 (read off the curve) [6]: ~0.08 µg/mL
IC50 (read off the curve) [7]: ~0.01 ug/test
IC50 (read off the curve) [8]: ~0.02 ug/test
B1: hPD-1 mAb 7 (1.2) IgG1 (AA) (antibody)
heavy: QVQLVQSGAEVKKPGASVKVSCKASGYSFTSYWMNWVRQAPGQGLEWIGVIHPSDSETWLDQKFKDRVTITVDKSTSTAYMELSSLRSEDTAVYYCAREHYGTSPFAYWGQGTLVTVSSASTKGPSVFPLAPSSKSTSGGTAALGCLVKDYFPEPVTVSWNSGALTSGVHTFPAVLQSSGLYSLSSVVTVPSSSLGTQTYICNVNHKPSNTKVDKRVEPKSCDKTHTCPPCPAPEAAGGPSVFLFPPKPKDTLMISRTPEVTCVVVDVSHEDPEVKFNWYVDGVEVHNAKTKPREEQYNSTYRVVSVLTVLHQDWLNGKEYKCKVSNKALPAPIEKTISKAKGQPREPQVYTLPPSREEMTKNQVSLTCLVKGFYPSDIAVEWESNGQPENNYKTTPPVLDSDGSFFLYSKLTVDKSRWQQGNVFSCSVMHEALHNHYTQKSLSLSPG
light: EIVLTQSPATLSLSPGERATLSCRASESVDNYGMSFMNWFQQKPGQPPKLLIHAASNQGSGVPSRFSGSGSGTDFTLTISSLEPEDFAVYFCQQSKEVPYTFGGGTKVEIKRTVAAPSVFIFPPSDEQLKSGTASVVCLLNNFYPREAKVQWKVDNALQSGNSQESVTEQDSKDSTYSLSSTLTLSKADYEKHKVYACEVTHQGLSSPVTKSFNRGEC
notes: also called h1PD-1 mAb 7(1.2) IgG1 (AA)
